US12269859B2, “Synthetic immune receptors and methods of use thereof” (Angeles Therapeutics, Inc., priority 2016, dated 2025)

Each molecule was assayed on target antigen-expressing cell line (assay: Jurkat NFAT-GFP assay, coculture with target cell lines expressing the respective target antigen (summary Table 10A)). Settings: SIR-expressing Jurkat-NFAT-GFP cells cocultured with NALM6; relative % GFP positive cells.
Format: cell-based, human
Set-up: key: The signs +/−, +, 2+ etc. after the name of the cell lines indicate the relative degree of positivity on the Jurkat-NFAT-GFP assay as measured by the % GFP positive cells; +: relative degree of positivity on the Jurkat-NFAT-GFP assay as measured by the % GFP positive cells; 2+: relative degree of positivity on the Jurkat-NFAT-GFP assay as measured by the % GFP positive cells
Procedure, shortened: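 Read-out: % GFP+ cells by FACS. SIR-transduced, puromycin-selected Jurkat NFAT-GFP (IL-2 promoter reporter) cocultured ~4–18 h with target line, E:T ~1:2; parental cells as control; graded +/−, +, 2+ relative to parental.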

Molecule | NFAT-GFP ASSAY Positive Cell lines: NALM6
042517-B02 (protein) MALPVTALLLPLALLLHAARPQSALTQPASASGSPGQSVTISCTGTSSDVGGYNYVSWYQQHPGKAPKLMIYDVSNRPSGVSNRFSGSKSGNTASLTISGLQAEDEADYYCSSYTSSSTLYVFGTGTQLTVLLEDLKNVFPPEVAVFEPSKAEIAHTQKATLVCLATGFYPDHVELSWWVNGKEVHSGVCTDPQPLKEQPALNDSRYCLSSRLRVSATFWQNPRNHFRCQVQFYGLSENDEWTQDRAKPVTQIVSAEAWGRADCGITSASYHQGVLSATILYEILLGKATLYAVLVSALVLMAMVKRKDSRGRAKRSGSGATNFSLLKQAGDVEENPGPTSMDWIWRILFLVGAATGAHSFEEVQLQQSGPGLVKPSQTLSLTCAISGDSMLSNSDTWNWIRQSPSRGLEWLGRTYHRSTWYDDYASSVRGRVSINVDTSKNQYSLQLNAVTPEDTGVYYCARVRLQDGNSWSDAFDVWGQGTMVTVSSTRIQNPDPAVYQLRDSKSSDKSVCLFTDFDSQTNVSQSKDSDVYITDKCVLDMRSMDFKSNSAVAWSNKSDFACANAFNNSIIPEDTFFPSSDVPCDVKLVEKSFETDTNLNFQNLSVIGFRILLLKVAGFNLLMTLRLWSSRAKRSGSGVKQTLNFDLLKLAGDVESNPGPSRGHMTEYKPTVRLATRDDVPRAVRTLAAAFADYPATRHTVDPDRHIERVTELQELFLTRVGLDIGKVWVADDGAAVAVWTTPESVEAGAVFAEIGPRMAELSGSRLAAQQQMEGLLAPHRPKEPAWFLATVGVSPDHQGKGLGSAVVLPGVEAAERAGVPAFLETSAPRNLPFYERLGFTVTADVEVPEGPRTWCMTRKPGA | (+/−)

Same assay, conditions: SIR-expressing Jurkat-NFAT-GFP cells cocultured with RAJI; relative % GFP positive cells

Molecule | NFAT-GFP ASSAY Positive Cell lines: RAJI
042517-B02 (protein) MALPVTALLLPLALLLHAARPQSALTQPASASGSPGQSVTISCTGTSSDVGGYNYVSWYQQHPGKAPKLMIYDVSNRPSGVSNRFSGSKSGNTASLTISGLQAEDEADYYCSSYTSSSTLYVFGTGTQLTVLLEDLKNVFPPEVAVFEPSKAEIAHTQKATLVCLATGFYPDHVELSWWVNGKEVHSGVCTDPQPLKEQPALNDSRYCLSSRLRVSATFWQNPRNHFRCQVQFYGLSENDEWTQDRAKPVTQIVSAEAWGRADCGITSASYHQGVLSATILYEILLGKATLYAVLVSALVLMAMVKRKDSRGRAKRSGSGATNFSLLKQAGDVEENPGPTSMDWIWRILFLVGAATGAHSFEEVQLQQSGPGLVKPSQTLSLTCAISGDSMLSNSDTWNWIRQSPSRGLEWLGRTYHRSTWYDDYASSVRGRVSINVDTSKNQYSLQLNAVTPEDTGVYYCARVRLQDGNSWSDAFDVWGQGTMVTVSSTRIQNPDPAVYQLRDSKSSDKSVCLFTDFDSQTNVSQSKDSDVYITDKCVLDMRSMDFKSNSAVAWSNKSDFACANAFNNSIIPEDTFFPSSDVPCDVKLVEKSFETDTNLNFQNLSVIGFRILLLKVAGFNLLMTLRLWSSRAKRSGSGVKQTLNFDLLKLAGDVESNPGPSRGHMTEYKPTVRLATRDDVPRAVRTLAAAFADYPATRHTVDPDRHIERVTELQELFLTRVGLDIGKVWVADDGAAVAVWTTPESVEAGAVFAEIGPRMAELSGSRLAAQQQMEGLLAPHRPKEPAWFLATVGVSPDHQGKGLGSAVVLPGVEAAERAGVPAFLETSAPRNLPFYERLGFTVTADVEVPEGPRTWCMTRKPGA | RAJI (+), NALM6
041117-S01 (protein) MALPVTALLLPLALLLHAARPEVQLQQSGPGLVKPSQTLSLTCAISGDSVLSNSDTWNWIRQSPSRGLEWLGRTYHRSTWYDDYASSVRGRVSINVDTSKNQYSLQLNAVTPEDTGVYYCARDRLQDGNSWSDAFDVWGQGTMVTVSSLEDLKNVFPPEVAVFEPSKAEIAHTQKATLVCLATGFYPDHVELSWWVNGKEVHSGVCTDPQPLKEQPALNDSRYCLSSRLRVSATFWQNPRNHFRCQVQFYGLSENDEWTQDRAKPVTQIVSAEAWGRADCGITSASYHQGVLSATILYEILLGKATLYAVLVSALVLMAMVKRKDSRGRAKRSGSGATNFSLLKQAGDVEENPGPTSMDWIWRILFLVGAATGAHSFEQSALTQPASVSGSPGQSITISCTGTSSDVGGYNYVSWYQQHPGKAPKLMIYDVSNRPSGVSNRFSGSKSGNTASLTISGLQAEDEADYYCSSYTSSSTLVYVFGTGTKVTVLTRIQNPDPAVYQLRDSKSSDKSVCLFTDFDSQTNVSQSKDSDVYITDKCVLDMRSMDFKSNSAVAWSNKSDFACANAFNNSIIPEDTFFPSSDVPCDVKLVEKSFETDTNLNFQNLSVIGFRILLLKVAGFNLLMTLRLWSSRAKRSGSGVKQTLNFDLLKLAGDVESNPGPSRGHMTEYKPTVRLATRDDVPRAVRTLAAAFADYPATRHTVDPDRHIERVTELQELFLTRVGLDIGKVWVADDGAAVAVWTTPESVEAGAVFAEIGPRMAELSGSRLAAQQQMEGLLAPHRPKEPAWFLATVGVSPDHQGKGLGSAVVLPGVEAAERAGVPAFLETSAPRNLPFYERLGFTVTADVEVPEGPRTWCMTRKPGA | RAJI (+/−)
041917-L04 (protein) MALPVTALLLPLALLLHAARPLEGKPIPNPLLGLDSTGSGEDLKNVFPPEVAVFEPSKAEIAHTQKATLVCLATGFYPDHVELSWWVNGKEVHSGVCTDPQPLKEQPALNDSRYCLSSRLRVSATFWQNPRNHFRCQVQFYGLSENDEWTQDRAKPVTQIVSAEAWGRADCGITSASYHQGVLSATILYEILLGKATLYAVLVSALVLMAMVKRKDSRGRAKRSGSGATNFSLLKQAGDVEENPGPTSMALPVTALLLPLALLLHAARPQVQLVQSGAEVKKPGASVKVSCKASGYTFTSYDINWVRQATGQGLEWMGWMNPNSGNTGYAQKFQGRVTMTRNTSISTAYMELSSLRSEDTAVYYCARGDSTKVEIKGGGGSGGGGSGGGGSQSVLTQPRSVSGSPGQSVTISCTGTSSDVGGYNYVSWYQQHPGEAPKLIIYDADKRPSGISNRFSSGKSGNTASLTISGLQVEDEADYYCCSYAGGSTWVFGGGTKVTVLTREQKLISEEDGSGIQNPDPAVYQLRDSKSSDKSVCLFTDFDSQTNVSQSKDSDVYITDKCVLDMRSMDFKSNSAVAWSNKSDFACANAFNNSIIPEDTFFPSSDVPCDVKLVEKSFETDTNLNFQNLSVIGFRILLLKVAGFNLLMTLRLWSSRAKRSGSGVKQTLNFDLLKLAGDVESNPGPSRGHMTEYKPTVRLATRDDVPRAVRTLAAAFADYPATRHTVDPDRHIERVTELQELFLTRVGLDIGKVWVADDGAAVAVWTTPESVEAGAVFAEIGPRMAELSGSRLAAQQQMEGLLAPHRPKEPAWFLATVGVSPDHQGKGLGSAVVLPGVEAAERAGVPAFLETSAPRNLPFYERLGFTVTADVEVPEGPRTWCMTRKPGA | RAJI (+/−)
040417-V03 (protein) MALPVTALLLPLALLLHAARPEVQLVESGGGLVQPGRSLRLSCAASGFTFDDYAMHWVRQAPGKGLEWVSGISWNSGSIGYADSVKGRFTISRDNAKNSLYLQMNSLRAEDTALYYCAKDKGGGYYDFWSGSDYWGQGTLVTVSSLEIQNPDPAVYQLRDSKSSDKSVCLFTDFDSQTNVSQSKDSDVYITDKCVLDMRSMDFKSNSAVAWSNKSDFACANAFNNSIIPEDTFFPSSDVPCDVKLVEKSFETDTNLNFQNLSVIGFRILLLKVAGFNLLMTLRLWSSRAKRSGSGVKQTLNFDLLKLAGDVESNPGPTSMDWIWRILFLVGAATGAHSFESSELTQDPAVSVALGQTVRITCQGDSLRSYYASWYQQKPGQAPVLVIYGKNNRPSGIPDRFSGSSSGNTASLTITGAQAEDEADYYCNSRDSSGWVFGGGTKLTVLTREDLKNVFPPEVAVFEPSKAEIAHTQKATLVCLATGFYPDHVELSWWVNGKEVHSGVCTDPQPLKEQPALNDSRYCLSSRLRVSATFWQNPRNHFRCQVQFYGLSENDEWTQDRAKPVTQIVSAEAWGRADCGITSASYHQGVLSATILYEILLGKATLYAVLVSALVLMAMVKRKDSRGRAKRSGSGATNFSLLKQAGDVEENPGPSRGHMTEYKPTVRLATRDDVPRAVRTLAAAFADYPATRHTVDPDRHIERVTELQELFLTRVGLDIGKVWVADDGAAVAVWTTPESVEAGAVFAEIGPRMAELSGSRLAAQQQMEGLLAPHRPKEPAWFLATVGVSPDHQGKGLGSAVVLPGVEAAERAGVPAFLETSAPRNLPFYERLGFTVTADVEVPEGPRTWCMTRKPGA | RAJI (+/−)
040417-W08 (protein) MALPVTALLLPLALLLHAARPQVQLVQSGAEVKKPGASVKVSCKASGYTFTSYDINWVRQATGQGLEWMGWMNPNSGNTGYAQKFQGRVTMTRNTSISTAYMELSSLRSEDTAVYYCARGDSTKVEIKLEIQNPDPAVYQLRDSKSSDKSVCLFTDFDSQTNVSQSKDSDVYITDKCVLDMRSMDFKSNSAVAWSNKSDFACANAFNNSIIPEDTFFPSSDVPCDVKLVEKSFETDTNLNFQNLSVIGFRILLLKVAGFNLLMTLRLWSSRAKRSGSGVKQTLNFDLLKLAGDVESNPGPTSMDWIWRILFLVGAATGAHSFEQSVLTQPRSVSGSPGQSVTISCTGTSSDVGGYNYVSWYQQHPGEAPKLIIYDADKRPSGISNRFSSGKSGNTASLTISGLQVEDEADYYCCSYAGGSTWVFGGGTKVTVLTREDLKNVFPPEVAVFEPSKAEIAHTQKATLVCLATGFYPDHVELSWWVNGKEVHSGVCTDPQPLKEQPALNDSRYCLSSRLRVSATFWQNPRNHFRCQVQFYGLSENDEWTQDRAKPVTQIVSAEAWGRADCGITSASYHQGVLSATILYEILLGKATLYAVLVSALVLMAMVKRKDSRGRAKRSGSGATNFSLLKQAGDVEENPGPSRGHMTEYKPTVRLATRDDVPRAVRTLAAAFADYPATRHTVDPDRHIERVTELQELFLTRVGLDIGKVWVADDGAAVAVWTTPESVEAGAVFAEIGPRMAELSGSRLAAQQQMEGLLAPHRPKEPAWFLATVGVSPDHQGKGLGSAVVLPGVEAAERAGVPAFLETSAPRNLPFYERLGFTVTADVEVPEGPRTWCMTRKPGA | RAJI (2+)
042517-A03 (protein) MALPVTALLLPLALLLHAARPQSALTQPASASGSPGQSVTISCTGTSSDVGGYNYVSWYQQHPGKAPKLMIYDVSNRPSGVSNRFSGSKSGNTASLTISGLQAEDEADYYCSSYTSSSTLYVFGTGTQLTVLLEIQNPDPAVYQLRDSKSSDKSVCLFTDFDSQTNVSQSKDSDVYITDKCVLDMRSMDFKSNSAVAWSNKSDFACANAFNNSIIPEDTFFPSSDVPCDVKLVEKSFETDTNLNFQNLSVIGFRILLLKVAGFNLLMTLRLWSSRAKRSGSGVKQTLNFDLLKLAGDVESNPGPTSMDWIWRILFLVGAATGAHSFEEVQLQQSGPGLVKPSQTLSLTCAISGDSMLSNSDTWNWIRQSPSRGLEWLGRTYHRSTWYDDYASSVRGRVSINVDTSKNQYSLQLNAVTPEDTGVYYCARVRLQDGNSWSDAFDVWGQGTMVTVSSTREDLKNVFPPEVAVFEPSKAEIAHTQKATLVCLATGFYPDHVELSWWVNGKEVHSGVCTDPQPLKEQPALNDSRYCLSSRLRVSATFWQNPRNHFRCQVQFYGLSENDEWTQDRAKPVTQIVSAEAWGRADCGITSASYHQGVLSATILYEILLGKATLYAVLVSALVLMAMVKRKDSRGRAKRSGSGATNFSLLKQAGDVEENPGPSRGHMTEYKPTVRLATRDDVPRAVRTLAAAFADYPATRHTVDPDRHIERVTELQELFLTRVGLDIGKVWVADDGAAVAVWTTPESVEAGAVFAEIGPRMAELSGSRLAAQQQMEGLLAPHRPKEPAWFLATVGVSPDHQGKGLGSAVVLPGVEAAERAGVPAFLETSAPRNLPFYERLGFTVTADVEVPEGPRTWCMTRKPGA | RAJI (+)
